Results from publication PMC5281607.

Experiment: whole-cell patch clamp, AITC amplitude and rectification
Settings: glycan lost; control: vehicle-treated (untreated) cells

B1: TRPA1: tunicamycin 5 μg/ml, 24 h (protein)
parent chain: MKRSLRKMWRPGEKKEPQGVVYEDVPDDTEDFKESLKVVFEGSAYGLQNFNKQKKLKRCDDMDTFFLHYAAAEGQIELMEKITRDSSLEVLHEMDDYGNTPLHCAVEKNQIESVKFLLSRGANPNLRNFNMMAPLHIAVQGMNNEVMKVLLEHRTIDVNLEGENGNTAVIIACTTNNSEALQILLKKGAKPCKSNKWGCFPIHQAAFSGSKECMEIILRFGEEHGYSRQLHINFMNNGKATPLHLAVQNGDLEMIKMCLDNGAQIDPVEKGRCTAIHFAATQGATEIVKLMISSYSGSVDIVNTTDGCHETMLHRASLFDHHELADYLISVGADINKIDSEGRSPLILATASASWNIVNLLLSKGAQVDIKDNFGRNFLHLTVQQPYGLKNLRPEFMQMQQIKELVMDEDNDGCTPLHYACRQGGPGSVNNLLGFNVSIHSKSKDKKSPLHFAASYGRINTCQRLLQDISDTRLLNEGDLHGMTPLHLAAKNGHDKVVQLLLKKGALFLSDHNGWTALHHASMGGYTQTMKVILDTNLKCTDRLDEDGNTALHFAAREGHAKAVALLLSHNADIVLNKQQASFLHLALHNKRKEVVLTIIRSKRWDECLKIFSHNSPGNKCPITEMIEYLPECMKVLLDFCMLHSTEDKSCRDYYIEYNFKYLQCPLEFTKKTPTQDVIYEPLTALNAMVQNNRIELLNHPVCKEYLLMKWLAYGFRAHMMNLGSYCLGLIPMTILVVNIKPGMAFNSTGIINETSDHSEILDTTNSYLIKTCMILVFLSSIFGYCKEAGQIFQQKRNYFMDISNVLEWIIYTTGIIFVLPLFVEIPAHLQWQCGAIAVYFYWMNFLLYLQRFENCGIFIVMLEVILKTLLRSTVVFIFLLLAFGLSFYILLNLQDPFSSPLLSIIQTFSMMLGDINYRESFLEPYLRNELAHPVLSFAQLVSFTIFVPIVLMNLLIGLAVGDIAEVQKHASLKRIAMQVELHTSLEKKLPLWFLRKVDQKSTIVYPNKPRSGGMLFHIFCFLFCTGEIRQEIPNADKSLEMEILKQKYRLKDLTFLLEKQHELIKLIIQKMEIISETEDDDSHCSFQDRFKKEQMEQRNSRWNTVLRAVKAKTHHLEP
  other: channel current: no change
